The values that follow come from article PMC5512576.

The target in this test is BF520 Env 637K (HIV-1).

PGT151 (antibody) had a maximum percent neutralization, TZM-bl pseudovirus neutralization by PGT151 of 59%.
